Laboratory results as given in patent publication US20160200782A1.

How the values were obtained:
Assay in all cases: cell-based or functional assay
[1] = molecular target: DMPK(h) (human) (UniProt Q09013)
[2] = molecular target: GSK3β(h) (human) (UniProt P49841)
[3] = molecular target: ROCK-I(h) (human) (UniProt Q13464)
[4] = molecular target: CDK5/p25(h) (human) (UniProt Q00535)
[5] = molecular target: HIPK3(h) (human) (UniProt Q9H422)
[6] = molecular target: CHK2(h) (human) (UniProt O96017)
[7] = molecular target: SAPK2b(h) (human) (UniProt Q15759)
[8] = molecular target: Ret(h) (human) (UniProt P07949)
Chain of Ret(h) (human) (P07949 658-1114 limits assumed): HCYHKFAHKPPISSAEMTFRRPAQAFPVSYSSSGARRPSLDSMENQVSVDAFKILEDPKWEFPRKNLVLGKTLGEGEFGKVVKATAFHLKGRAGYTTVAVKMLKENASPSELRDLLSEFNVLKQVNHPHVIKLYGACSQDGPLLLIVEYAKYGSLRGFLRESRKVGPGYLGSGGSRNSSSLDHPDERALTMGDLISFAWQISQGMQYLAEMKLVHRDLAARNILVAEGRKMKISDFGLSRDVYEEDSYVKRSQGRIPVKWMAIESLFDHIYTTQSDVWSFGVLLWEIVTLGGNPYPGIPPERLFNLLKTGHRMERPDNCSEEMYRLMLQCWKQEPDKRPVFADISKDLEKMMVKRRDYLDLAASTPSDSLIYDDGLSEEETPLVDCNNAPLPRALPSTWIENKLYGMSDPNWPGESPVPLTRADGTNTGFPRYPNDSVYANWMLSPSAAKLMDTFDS

[9] = molecular target: SIK(h) (human) (UniProt P57059)
[10] = molecular target: MSK2(h) (human) (UniProt O75676)
[11] = molecular target: BRK(h) (human) (UniProt Q13882)
[12] = molecular target: CDK9/cyclin T1(h) (human) (UniProt P50750)
Chain of CDK9/cyclin T1(h) (human) (P50750 whole entry, chain 1 of 2): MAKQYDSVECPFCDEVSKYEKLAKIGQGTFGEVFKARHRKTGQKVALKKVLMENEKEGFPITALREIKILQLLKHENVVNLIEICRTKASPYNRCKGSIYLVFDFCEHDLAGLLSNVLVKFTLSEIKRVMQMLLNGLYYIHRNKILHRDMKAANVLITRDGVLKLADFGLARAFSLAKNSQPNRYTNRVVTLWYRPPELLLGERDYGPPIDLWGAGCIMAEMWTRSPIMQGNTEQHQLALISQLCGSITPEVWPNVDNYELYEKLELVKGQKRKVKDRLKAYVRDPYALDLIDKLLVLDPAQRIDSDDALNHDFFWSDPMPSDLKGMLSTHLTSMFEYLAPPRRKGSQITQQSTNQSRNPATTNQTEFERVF
Chain of CDK9/cyclin T1(h) (human) (O60563 whole entry, chain 2 of 2, further chain): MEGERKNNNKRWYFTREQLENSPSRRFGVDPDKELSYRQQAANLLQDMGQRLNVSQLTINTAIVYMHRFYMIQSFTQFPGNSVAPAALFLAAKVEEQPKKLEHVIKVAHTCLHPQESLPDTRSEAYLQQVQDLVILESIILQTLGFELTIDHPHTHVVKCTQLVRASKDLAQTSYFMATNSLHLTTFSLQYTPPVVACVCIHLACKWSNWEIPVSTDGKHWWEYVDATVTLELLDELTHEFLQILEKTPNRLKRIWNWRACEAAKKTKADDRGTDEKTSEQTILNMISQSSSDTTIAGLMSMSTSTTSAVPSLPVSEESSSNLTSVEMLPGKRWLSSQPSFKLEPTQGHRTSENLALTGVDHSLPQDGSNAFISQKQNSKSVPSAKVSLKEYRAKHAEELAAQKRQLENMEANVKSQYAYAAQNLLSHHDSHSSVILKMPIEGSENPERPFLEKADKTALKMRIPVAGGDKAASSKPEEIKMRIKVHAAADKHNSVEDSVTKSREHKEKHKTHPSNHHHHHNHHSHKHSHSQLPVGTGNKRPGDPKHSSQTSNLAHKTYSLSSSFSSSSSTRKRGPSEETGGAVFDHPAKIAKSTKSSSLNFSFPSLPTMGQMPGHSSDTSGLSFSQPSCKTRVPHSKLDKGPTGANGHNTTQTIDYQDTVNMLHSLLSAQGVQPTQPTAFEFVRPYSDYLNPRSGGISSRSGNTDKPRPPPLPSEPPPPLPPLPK

[13] = molecular target: Arg(h) (human) (UniProt P42684)
[14] = molecular target: DAPK2(h) (human) (UniProt Q9UIK4)
[15] = molecular target: EphA1(h) (human) (UniProt P21709)
[16] = molecular target: EGFR(L861Q)(h) (human) (UniProt P00533)
[17] = molecular target: PKCζ(h) (human) (UniProt Q05513)
[18] = molecular target: CaMKIV(h) (human) (UniProt Q16566)
[19] = molecular target: ULK2(h) (human) (UniProt Q8IYT8)
[20] = molecular target: PRK2(h) (human) (UniProt Q16513)
[21] = molecular target: MAPK2(h) (human) (UniProt P28482)
[22] = molecular target: SAPK2a(T106M)(h) (human) (UniProt Q16539)
[23] = molecular target: ASK1(h) (human) (UniProt Q99683)
Chain of ASK1(h) (human) (Q99683 649-946 limits assumed): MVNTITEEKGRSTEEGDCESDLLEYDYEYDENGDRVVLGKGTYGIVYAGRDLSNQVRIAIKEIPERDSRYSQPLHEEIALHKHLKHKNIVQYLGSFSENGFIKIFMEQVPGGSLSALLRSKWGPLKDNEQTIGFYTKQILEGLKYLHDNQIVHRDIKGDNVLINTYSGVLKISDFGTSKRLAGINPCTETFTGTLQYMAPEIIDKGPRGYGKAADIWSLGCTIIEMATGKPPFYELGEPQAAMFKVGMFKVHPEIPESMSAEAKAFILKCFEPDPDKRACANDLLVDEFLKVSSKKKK

[24] = molecular target: BTK(R28H)(h) (human) (UniProt Q06187)
[25] = molecular target: FGFR3(h) (human) (UniProt P22607)
[26] = molecular target: Syk(h) (human) (UniProt P43405)
[27] = molecular target: Ab1(Q252H)(h) (human) (UniProt P00519)
[28] = molecular target: IKKβ(h) (human) (UniProt O14920)
Chain of IKKβ(h) (human) (O14920 whole entry): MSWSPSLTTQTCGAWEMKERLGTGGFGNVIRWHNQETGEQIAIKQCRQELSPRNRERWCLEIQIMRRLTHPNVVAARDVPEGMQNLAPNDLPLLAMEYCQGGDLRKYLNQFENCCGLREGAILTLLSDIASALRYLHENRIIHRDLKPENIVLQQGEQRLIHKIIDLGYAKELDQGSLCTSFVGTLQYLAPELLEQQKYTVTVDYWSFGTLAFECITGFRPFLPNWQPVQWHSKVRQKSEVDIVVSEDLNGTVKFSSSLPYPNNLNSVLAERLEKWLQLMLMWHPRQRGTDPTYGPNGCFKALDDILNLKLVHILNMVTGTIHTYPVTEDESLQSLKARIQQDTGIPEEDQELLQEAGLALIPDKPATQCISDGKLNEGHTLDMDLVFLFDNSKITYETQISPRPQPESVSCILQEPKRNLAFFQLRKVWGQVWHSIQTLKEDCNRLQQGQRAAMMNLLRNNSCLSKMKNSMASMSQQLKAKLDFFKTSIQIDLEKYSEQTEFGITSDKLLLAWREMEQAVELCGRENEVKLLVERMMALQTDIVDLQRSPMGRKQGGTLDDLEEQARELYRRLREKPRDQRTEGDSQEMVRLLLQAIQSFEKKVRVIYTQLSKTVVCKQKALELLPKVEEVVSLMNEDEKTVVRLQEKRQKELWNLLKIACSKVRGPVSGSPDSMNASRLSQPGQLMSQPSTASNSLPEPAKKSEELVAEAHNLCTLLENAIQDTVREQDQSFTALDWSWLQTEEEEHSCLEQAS

[29] = molecular target: Met(M1268T)(h) (human) (UniProt P08581)
[30] = molecular target: TAO1(h) (human) (UniProt Q7L7X3)
[31] = molecular target: GRK7(h) (human) (UniProt Q8WTQ7)
[32] = molecular target: AMPKa2(h) (human) (UniProt P54646)
[33] = molecular target: EphA3(h) (human) (UniProt P29320)
Chain of EphA3(h) (human) (P29320 566-983 limits assumed): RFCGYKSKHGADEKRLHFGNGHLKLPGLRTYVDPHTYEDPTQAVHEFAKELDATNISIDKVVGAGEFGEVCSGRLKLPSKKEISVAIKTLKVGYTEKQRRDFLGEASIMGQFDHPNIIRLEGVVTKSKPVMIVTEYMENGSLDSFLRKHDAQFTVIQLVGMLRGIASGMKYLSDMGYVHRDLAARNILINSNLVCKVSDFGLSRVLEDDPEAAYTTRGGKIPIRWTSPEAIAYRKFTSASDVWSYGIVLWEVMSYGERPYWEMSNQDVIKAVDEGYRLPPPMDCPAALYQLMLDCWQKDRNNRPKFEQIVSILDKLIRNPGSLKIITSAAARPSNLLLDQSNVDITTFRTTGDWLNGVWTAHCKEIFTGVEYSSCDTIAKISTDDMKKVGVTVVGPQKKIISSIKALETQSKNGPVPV

[34] = molecular target: c-RAF(h) (human) (UniProt P04049)
[35] = molecular target: PAK4(h) (human) (UniProt O96013)
[36] = molecular target: MST2(h) (human) (UniProt Q13188)
[37] = molecular target: ZIPK(h) (human) (UniProt O43293)
[38] = molecular target: Lyn(h) (human) (UniProt P07948)
Chain of Lyn(h) (human) (P07948 whole entry): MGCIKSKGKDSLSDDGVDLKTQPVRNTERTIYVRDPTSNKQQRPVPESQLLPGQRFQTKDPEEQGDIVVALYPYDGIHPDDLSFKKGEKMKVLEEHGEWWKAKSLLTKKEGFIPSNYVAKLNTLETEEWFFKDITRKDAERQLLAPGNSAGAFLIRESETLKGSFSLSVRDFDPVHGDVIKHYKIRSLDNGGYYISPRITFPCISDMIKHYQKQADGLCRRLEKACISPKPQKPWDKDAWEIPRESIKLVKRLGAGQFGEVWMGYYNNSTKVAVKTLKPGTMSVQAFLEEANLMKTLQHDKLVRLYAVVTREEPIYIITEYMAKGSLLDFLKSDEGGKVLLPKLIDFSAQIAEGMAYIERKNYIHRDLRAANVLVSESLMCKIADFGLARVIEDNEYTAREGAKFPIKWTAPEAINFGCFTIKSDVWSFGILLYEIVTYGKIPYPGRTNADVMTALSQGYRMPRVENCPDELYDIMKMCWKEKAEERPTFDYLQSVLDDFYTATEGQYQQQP

[39] = molecular target: Bmx(h) (human) (UniProt P51813)
[40] = molecular target: Src(1-530)(h) (human) (UniProt P12931)
[41] = molecular target: MELK(h) (human) (UniProt Q14680)
[42] = molecular target: Tie2(h) (human) (UniProt Q02763)
Chain of Tie2(h) (human) (Q02763 771-1124 limits assumed): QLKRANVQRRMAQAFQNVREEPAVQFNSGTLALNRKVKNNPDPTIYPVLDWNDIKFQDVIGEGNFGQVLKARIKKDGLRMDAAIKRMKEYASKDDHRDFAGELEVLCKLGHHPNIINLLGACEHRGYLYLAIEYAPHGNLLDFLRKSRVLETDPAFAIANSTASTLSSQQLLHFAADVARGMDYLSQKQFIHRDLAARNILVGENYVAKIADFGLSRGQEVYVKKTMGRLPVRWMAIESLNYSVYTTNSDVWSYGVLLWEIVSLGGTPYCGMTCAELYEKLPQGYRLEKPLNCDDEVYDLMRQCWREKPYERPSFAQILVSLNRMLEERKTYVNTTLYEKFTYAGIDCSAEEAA

[43] = molecular target: Rsk2(h) (human) (UniProt P51812)
[44] = molecular target: Aurora-A(h) (human) (UniProt O14965)
[45] = molecular target: WNK2(h) (human) (UniProt Q9Y3S1)
[46] = molecular target: PDGFRα(D842V)(h) (human) (UniProt P16234)
[47] = molecular target: PAK2(h) (human) (UniProt Q13177)
[48] = molecular target: PhKγ2(h) (human) (UniProt P15735)
[49] = molecular target: Pim-2(h) (human) (UniProt Q9P1W9)
[50] = molecular target: Mer(h) (human) (UniProt Q12866)
[51] = molecular target: MLCK(h) (human)
[52] = molecular target: JAK2(h) (human) (UniProt O60674)
[53] = molecular target: PAR-1Bα(h) (human) (UniProt Q7KZI7)
[54] = molecular target: cKit(D816V)(h) (human) (UniProt P10721)
[55] = molecular target: BrSK1(h) (human) (UniProt Q8TDC3)
[56] = molecular target: Met(D1246H)(h) (human) (UniProt P08581)

Chain of DMPK(h) (human) (Q09013 whole entry): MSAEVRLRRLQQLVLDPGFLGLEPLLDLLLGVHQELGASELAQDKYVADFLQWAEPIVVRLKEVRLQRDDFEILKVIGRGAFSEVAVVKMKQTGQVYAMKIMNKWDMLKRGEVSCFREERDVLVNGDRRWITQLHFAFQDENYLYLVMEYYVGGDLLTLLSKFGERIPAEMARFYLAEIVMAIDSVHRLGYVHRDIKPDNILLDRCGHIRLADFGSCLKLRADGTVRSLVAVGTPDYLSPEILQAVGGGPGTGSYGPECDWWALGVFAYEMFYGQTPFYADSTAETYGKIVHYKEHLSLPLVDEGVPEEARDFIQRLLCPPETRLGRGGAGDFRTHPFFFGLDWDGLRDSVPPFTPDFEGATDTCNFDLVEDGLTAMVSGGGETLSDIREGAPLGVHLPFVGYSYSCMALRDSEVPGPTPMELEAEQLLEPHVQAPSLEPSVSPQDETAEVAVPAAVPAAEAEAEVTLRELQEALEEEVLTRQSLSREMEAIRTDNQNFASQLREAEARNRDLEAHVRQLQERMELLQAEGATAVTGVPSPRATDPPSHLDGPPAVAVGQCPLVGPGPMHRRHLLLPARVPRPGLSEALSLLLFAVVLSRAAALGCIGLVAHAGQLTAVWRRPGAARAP
Chain of HIPK3(h) (human) (Q9H422 161-562 limits assumed): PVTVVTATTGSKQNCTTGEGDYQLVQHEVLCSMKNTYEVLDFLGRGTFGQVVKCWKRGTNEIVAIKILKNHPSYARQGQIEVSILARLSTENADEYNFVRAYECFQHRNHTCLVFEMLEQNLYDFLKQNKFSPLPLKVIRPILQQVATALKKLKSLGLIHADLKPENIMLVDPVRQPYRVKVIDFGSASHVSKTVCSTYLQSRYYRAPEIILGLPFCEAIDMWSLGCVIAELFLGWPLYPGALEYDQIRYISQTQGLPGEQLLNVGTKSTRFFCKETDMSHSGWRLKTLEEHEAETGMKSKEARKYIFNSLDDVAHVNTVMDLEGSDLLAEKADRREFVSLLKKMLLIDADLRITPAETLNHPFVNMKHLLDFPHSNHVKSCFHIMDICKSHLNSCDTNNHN

MMI-0500 (peptide)
% activity [1]: 12%
% activity [2]: 238%
% activity [3]: 17%
% activity [4]: 66%
% activity [5]: 85%
% activity [6]: 13%
% activity [7]: 42%
% activity [8]: 174%
% activity [9]: 40%
% activity [10]: 14%
% activity [11]: 41%
% activity [12]: 6%
% activity [13]: 22%
% activity [14]: 3%
% activity [15]: 40%
% activity [16]: 15%
% activity [17]: 7%
% activity [18]: -1%
% activity [19]: 124%
% activity [20]: 7%
% activity [21]: 60%
% activity [22]: 32%
% activity [23]: -4%
% activity [24]: 10%
% activity [25]: 10%
% activity [26]: 5%
% activity [27]: 40%
% activity [28]: 71%
% activity [29]: 239%
% activity [30]: 24%
% activity [31]: 93%
% activity [32]: 9%
% activity [33]: 33%
% activity [34]: 19%
% activity [35]: 86%
% activity [36]: 2%
% activity [37]: 1%
% activity [38]: 31%
% activity [39]: 45%
% activity [40]: 21%
% activity [41]: 0%
% activity [42]: 22%
% activity [43]: 14%
% activity [44]: 110%
% activity [45]: 8%
% activity [46]: 170%
% activity [47]: 44%
% activity [48]: 16%
% activity [49]: 46%
% activity [50]: 17%
% activity [51]: 0%
% activity [52]: 49%
% activity [53]: 97%
% activity [54]: 30%
% activity [55]: 72%
% activity [56]: 150%
